Experimental data taken from PMC7618375, “Structure and Methyl-lysine Binding Selectivity of the HUSH Complex Subunit MPP8” (Journal of molecular biology, 2024).
pKd: −log10 of the molar value.

Experiments:
[1] = molecular target: MPP8 chromodomain (CD, residues 55-116) (human) (UniProt Q99549); experiment: ITC; 750 uM peptide in the syringe titrated into 50 uM MPP8 CD in the cell; 50 mM HEPES pH 7.4, 0.1 M NaCl, 0.5 mM TCEP, 25 °C; single-site model
Dnmt3a (Homo sapiens) = Dnmt3a (Homo sapiens) (UniProt Q9Y6K1); settings: cited from earlier work

| pKd [1] | Substance | pKd (Dnmt3a (Homo sapiens)) |
| --- | --- | --- |
| 6.71 | ATF7IP N-terminal tail peptide trimethylated at lysine 16 | – |
| 5.88 | G9a peptide trimethylated at K185 | – |
| 6.47 | GLP peptide residues 199-211 with lysine 205 trimethylated (from UniProt Q9H9B1 199-211) | – |
| 6.11 | Histone H3 peptide trimethylated at lysine 9 | – |
| < 4.30 | Histone H3 peptide trimethylated at lysine 27 | – |
| – | MPP8 chromodomain (from UniProt Q99549) | 4.92 |
| 5.81 | SETDB1 peptide trimethylated at K1170 | – |
| < 4.30 | SETDB1 peptide trimethylated at K1178 | – |
